Bridge positions count the residues as written; N and C are the ends. Peptide text beside a SMILES is read from it. * marks the point of attachment. NOTA = O=C(O)CN1CCN(CC(=O)O)CCN(CC(=O)*)CC1
Experiments:
in vivo = assay: in vivo; parameters: species or system mice; details: female, BALB/c nude, mouse, in vivo, iv, 0.74 MBq, total radioactivity
Procedure: (§1) Tumor-bearing mice were prepared via a subcutaneous injection of cancer cells into the forelegs of female (SKOV3) or male (PC3) BALB/c nude mice (B&K Universal, Shanghai, China) at 6 weeks of age (body weight 18–20 g). When tumors were palpable, i.e., approximately 5 mm in diameter, the mice were used for biodistribution and PET imaging experiments. Biodistribution experiments were performed via intravenous administration of [^18F]AlF-NOTA-C6 (0.74 MBq) to mice bearing SKOV3 tumors. At 30, 60, and 120 min PI (n = 4 mice/timepoint), the mice were euthanized and the biological samples of interest (e.g., blood, tumor, muscle, lung, spleen, kidney, liver, and small intestine) were harvested and weighed. In the blocking experiments, the mice (n = 4) were pre-blocked with unlabeled C6 at 10 mg/kg body weight prior to the tracer injection; at 60 min PI of [^18F]AlF-NOTA-C6, the mice were euthanized as previously described. The radioactivity values of the tissues and injection standards were subsequently measured in a γ-counter. The samples were corrected for radioactive decay to calculate the percent of injected dose (ID) to grams of tissue (%ID/g) relative to a standard that represented the injected dose.

SKOV3 tumor-bearing mice = assay: in vivo
Procedure: as §1

SKOV3 tumors = assay: MicroPET imaging of SKOV3 tumor-bearing mice; assay type: in vivo; details: 3.7 MBq via tail vein, non-blocked
Procedure: Tumor-bearing mice were prepared via a subcutaneous injection of cancer cells into the forelegs of female (SKOV3) or male (PC3) BALB/c nude mice (B&K Universal, Shanghai, China) at 6 weeks of age (body weight 18–20 g). When tumors were palpable, i.e., approximately 5 mm in diameter, the mice were used for biodistribution and PET imaging experiments. PET imaging was performed on 4 mice bearing SKOV3 tumors using a microPET scanner; prior to the tracer injection, 2 mice were pre-blocked with unlabeled C6 at 10 mg/kg body weight, and 2 mice were not pre-blocked. Pre-blocked and non-blocked mice were then administered 3.7 MBq of [^18F]AlF-NOTA-C6, via tail vein injection. At 30, 60, and 120 min post-injection (PI), the mice were anesthetized with 1–2% isoflurane, positioned supine, immobilized, and imaged. The scan time was 10 min. The images were reconstructed using the ordered subset expectation maximization method; no attenuation correction was used.

[1] = assay type: physicochemical
Procedure: To examine in vitro stability, approximately 400 μL of [^18F]AlF-NOTA-C6 and 2 mL of physiological saline at room temperature, or 2 mL of human serum at 37°C, were mixed and incubated for 4 h. During the incubation, 200-μL samples were collected at 2 and 4 h. The samples were subsequently analyzed by radio-HPLC.

PC3 tumors = assay: MicroPET imaging of PC3 tumor-bearing mice; assay type: in vivo; details: 3.7 MBq via tail vein, greatest radioactivity concentration at 30 min PI
gelatinase = tested on: gelatinase; parameters: method as in PMID 19424760; details: cited from earlier work

Compound: CC(C)C[C@@H]1NC(=O)[C@H]([C@@H](C)O)NC(=O)[C@H](Cc2ccccc2)NC(=O)CNC(=O)[C@H](Cc2c[nH]c3ccccc23)NC(=O)[C@H](Cc2c[nH]cn2)NC(=O)[C@H](C)NC(=O)[C@@H](NC(=O)CN2CCN(CC(=O)O)CCN(CC(=O)O)CC2)CCCCNC(=O)C[C@@H](C(N)=O)NC1=O [[^18F]AlF-NOTA-C6] ({NOTA}-KAHWGFTLD-NH2; lactam 1-9)
- tissue uptake at 0.5 h (in vivo; Fat uptake): 0.44 ± 0.08 %ID/g
- tissue uptake at 1 h (in vivo; Fat uptake): 0.18 ± 0.1 %ID/g
- tissue uptake at 2 h (in vivo; Fat uptake): 0.12 ± 0.07 %ID/g
- tissue uptake at 0.5 h (in vivo; Gut uptake): 0.47 ± 0.09 %ID/g
- tissue uptake at 1 h (in vivo; Gut uptake): 0.13 ± 0.07 %ID/g
- tissue uptake at 2 h (in vivo; Gut uptake): 0.12 ± 0.07 %ID/g
- tissue uptake at 0.5 h (in vivo; Kidney uptake): 7.14 ± 0.05 %ID/g
- tissue uptake at 1 h (in vivo; Kidney uptake): 4.55 ± 1.38 %ID/g
- tissue uptake at 2 h (in vivo; Kidney uptake): 4.72 ± 0.31 %ID/g
- tissue uptake at 0.5 h (in vivo; Muscle uptake): 0.57 ± 0.15 %ID/g
- tissue uptake at 1 h (in vivo; Muscle uptake): 0.08 ± 0.04 %ID/g
- tissue uptake at 2 h (in vivo; Muscle uptake): 0.21 ± 0.08 %ID/g
- tissue uptake at 0.5 h (in vivo; Pancreas uptake): 0.35 ± 0.01 %ID/g
- tissue uptake at 1 h (in vivo; Pancreas uptake): 0.16 ± 0.14 %ID/g
- tissue uptake at 2 h (in vivo; Pancreas uptake): 0.09 ± 0.06 %ID/g
- tissue uptake at 0.5 h (in vivo; Sexual gland uptake): 0.5 ± 0.12 %ID/g
- tissue uptake at 1 h (in vivo; Sexual gland uptake): 0.05 ± 0.03 %ID/g
- tissue uptake at 2 h (in vivo; Sexual gland uptake): 0.09 ± 0.02 %ID/g
- tissue uptake at 0.5 h (in vivo; Stomach uptake): 0.49 ± 0.31 %ID/g
- tissue uptake at 1 h (in vivo; Stomach uptake): 0.21 ± 0.19 %ID/g
- tissue uptake at 2 h (in vivo; Stomach uptake): 0.07 ± 0.02 %ID/g
- tissue uptake at 0.5 h (in vivo; Thyroid uptake): 0.88 ± 0.13 %ID/g
- tissue uptake at 1 h (in vivo; Thyroid uptake): 0.16 ± 0.07 %ID/g
- tissue uptake at 2 h (in vivo; Thyroid uptake): 0.3 ± 0.16 %ID/g
- tissue uptake at 0.5 h (in vivo; Tumor uptake): 1.2 ± 0.24 %ID/g
- tissue uptake at 1 h (in vivo; Tumor uptake): 0.75 ± 0.25 %ID/g
- tissue uptake at 2 h (in vivo; Tumor uptake): 0.27 ± 0.14 %ID/g
- change of tumor tissue uptake after pre-injection of excess C6 (SKOV3 tumor-bearing mice; SKOV3 tumor-bearing mice, C6 10 mg/kg pre-block versus non-blocked, 60 min PI, P < 0.05): marked reduction
- uptake ratio of tumor-to-blood (SKOV3 tumor-bearing mice; mouse, in vivo): > 2 fold
- tumor radioactivity concentration in PET (SKOV3 tumors; 30 and 60 min PI): visualized
- uptake of the tumors in PET (SKOV3 tumors; 120 min PI): negligible
- radioactive degradation products [1]: absence
- radioactivity in the form of [18F]AlF-NOTA-C6 ([1]; physiological saline, room temperature, 4 h incubation, radio-HPLC): > 95%
- tumor detection via PET (PC3 tumors): detected

Compound: c(Lys-Ala-His-Trp-Gly-Phe-Thr-Leu-Asp)NH2 (sidechain bridge or staple) [C6]
- increase in gelatinase inhibition relative to CTT (gelatinase): 4 fold
